Reference: the DeepSol protein solubility set

Experiment: soluble on expression in E. coli; label from the status in PepcDB or PDB records

Sequence | soluble on expression in E. coli
MDVADISKKQSILKQFEREGVKNVLFTDCLRQHDENVKKHPVIRCLMFQIVPLVSKLIESTSRFHREEERCYCLMVIGVPNVGKSSLINALRRTYLKKGKASKVGAEPGITKAVLTKIQVCERPIIHLLDTPGVLPPRIENIETGMKLALCGTVLDHLVGEDVIADFLLFSLNRLERFSYVEKYSLEEPCDDIQHVLKCIAVKLGKTRRVKAITGVGNITVQLPDYSAAAYDFIRAFRKGELGKVMLD | not soluble
AGQQQPLPVPPLLESRRGQPLFMTVQRAHWSFTPGTRASVWGINGRYLGPTIRVWKGDDVKLIYSNRLTENVSMTVAGLQVPGPLMGGPARMMSPNADWAPVLPIRQNAATLWYHANTPNRTAQQVYNGLAGMWLVEDEVSKSLPIPNHYGVDDFPVIIQDKRLDNFGTPEYNEPGSGGFVGDTLLVNGVQSPYVEVSRGWVRLRLLNASNSRRYQLQMNDGRPLHVISGDQGFLPAPVSVKQLSLAPGERREILVDMSNGDEVSITCGEAASIVDRIRGFFEPSSILVSTLVLTLRPTGLLPLVTDSLPMRLLPTEIMAGSPIRSRDISLGDDPGINGQLWDVNRIDVTAQQGTWERWTVRADEPQAFHIEGVMFQIRNVNGAMPFPEDRGWKDTVWVDGQVELLVYFGQPSWAHFPFYFNSQTLEMADRGSIGQLLVNPVPRSHHHHHH | soluble
MAHHHHHHMGGVTLHKVNTCPWWQRKNYEIEKSFFLRSAPPPLRKKRNQLRQYNHAENNSYTNIYTIKNPLKCKVVDKVSLVRQNALHEVYNVEIDHGGMFKYLEGHSCGVIPYYEDLIQADDKNNSQEGRKKRGNKFARLYSISSTNAENLSFAIRIHSYQEEENGCMQHKYGYCSGYIKELKKNDNIYITGAHGCFLLPDNVSEKNTNLILIATGTGISPYISFLKKIWGYQPGIHQQKKTYNGQVYLYYGVYYEDSILYLPELKYFQNMYPNNFHVEYVFSSIKNSDGTSHHVQDEIYKKRENFLRLFNELNCELYICGHKSIRAKIMDILKGENPVLDSEKKKRVHVEVY | not soluble
MKKTPLYEAHLRLGARMVDFAGYLLPLQYTSIVEEHLAVRRAVGVFDVSHMGEFLVRGKEALAFLQWATANDAGKLKVGRAQYSMLPNERGGVVDDIYLYRLGEEEYLMVVNAANIAKDLAHLQALAKGFRVELEDASERTALLALQGPKAASLLQGLTDLDLSQKRKNDVFPARVAGRPARLARTGYTGEDGFELFLAPEDAEPVFLALVEAGAKPAGLGARDSLRLEAGFPLYGHELTEETNPLCTPWAWVVKKEKAFLGKEAMLAQACRERLVGLVLEGGIPREGYRVLSGGRPVGRVTSGGYSPLLQRGIALAYVEEGAEGPFQVEVRGRAVPAALSPLPFVPLK | soluble
MKTFEVMIQTDSKGYLDAKFGGNAPKAFLNSNGLPTYSPKISWQKVEGAQSYALELIDHDAQKVCGMPFVHWVVGNIAHNVLEENASMMDKRIVQGVNSLTQGFIRSPLNESEKQRSNLNNSVYIGPMPPNGDHHYLIQVYALDIPKLALKAPFFLGDLHDKMRNHIIAIGRKEFLYKQFVRK | soluble
MSLNADTLEDIKKAGVIKAATEMQFPPFDFLEGDKYVGVDRDLMDEVAKELGVKVEYIDLPWTSVLPGLEAGKFDLVIAPVTITKERLARYAFTLPISEGTAALMKRADDDSITKPEDIAGKTIGGGKGTSQLGQIKEYAAALPGKVEFKEYVDSNQSYADLAAGRVDASVNSYPNLAYAAAQRPETFAVVLPPFGKTTYFSWVSRLGEKDASLVEAVNAALLKLGEDGRMSAIHEKWFGKGVDLPKEGHHHHHH | soluble
MIYKNRLLKTIRYNVKATTISPLAIRDDEDNLKIDQLTGKVYIPGSSVAGAFRNYYENYIDKNSNENFNELFGGQKTGMSQIVFYDGYLVNDYVKEMISSRPGIKMDLKRMTVEVSDDAKKSGKKFKRRFLNEGLTFEFVFELNNYEDDAGKFEEKQRKFEELLKAFSIGDISLGSNKMIGYGRFRVDSISKSVFDFTNINDLLKYMLMETDSTEITQDILGREQETSKVRFKIKGKTVTPLLVKDETVRLSNESDGINIKDSRGNYIIPGSSIKGVIRSRAERLHRTFPCIGEEILTNIFGIESKKDDDGHISRLSCFDAVVKNPNKGIYNKIKIDYFTGGVMQGALMNDEVVMGDVEIECTFNTSGLNDYKREIGLLLLVLRDLCKEDLSIGSGYAVGRGYIKAETLELYDGEKLVLDFKSPNREVLKRFDSYISSLMNVG | soluble
GMLESVRKEWLEIMDRELLEKARSLINANYISTTLSTVDRNYEVNIAVISVLEMIGDDTIICARFGADKTYANLKETGKGVFMVLLTDNDKSKDGIRVYVELSADLQEGEYFDRIKKRLDNTTYKNFPLKNCLVFKIVKILPVSLLRK | soluble
MSLAASKGNLLSPDRILTVAHRGASGYVPEHTILSYETAQKMKADFIELDLQMTKDGKLIVMHDEKLDRTTNGMGWVKDHTLADIKKLDAGSWFNEAYPEKAKPQYVGLKVPTLEEVLDRFGKHANYYIETKSPDTYPGMEEKLIASLQKHKLLGKHSKPGQVIIQSFSKESLVKVHQLQPNLPTVQLLEAKQMASMTDAALEEIKTYAVGAGPDYKALNQENVRMIRSHGLLLHPYTVNNEADMHRLLDWGVTGVFTNYPDLFHKVKKGYEGHHHHHH | soluble
HHYVKGELKIAASFTIGEYILPPLLAQLQKLYPELNLDVMIGNTEEVSERVRMLQADIGLIEGHTNENELEIEPFMEDEMCIAAPNQHPLAGRKEISISDLQNEAWVTREKGSGTREYLDHVLSSNGLRPKSMFTISSNQGVK | not soluble
MGSDKIHHHHHHMEIIAHRGFRGRYPEMTAQAYEKACELPIHGVECDVRLTADGHLACVHDRTLLRIASCGLVVSTATMDQLREHGIITLDELIDILPEDKHLYIETKHPMRYGVMAEEQVALRLRYRGLLHDPRFHLISFSHAAIRRMGRIAPGFDTIYLRREWELRYNPKDFAISRPSAWGLSLAHAKIRPQLIGRDGKKTYMWTVNDADDVRWARDNGVQLLATDYPDVALEALAQ | not soluble
MAKKEIEPKTEQAKRLRLIRKSLQLHRDQIATRLGINKAIYDHAERGTTFPNVEFLTALSQQLKVNLNWFITGNGEMFTDMAKAKAAGFKPQAIPAGLMKRLGHLAYTTYRDAKITLPPEDVAELAAGLYGKLQELIYNINDMEEVEATLPLLKLHLKRQVEAEKAH | not soluble
MKLSPSVIALSVLLSSHTLANTAGQVETCQQKAQDIQRQIDEAHKHGNQNRINGLEKALDGVKNHCTDAGLAEKRQEAIAEKRKDVAERQQELSESRQKRDDAEKILKRERKLAEAEQELRAAESGASQLEHHHHHH | soluble
LYVGSLHFNITEDMLRGIFEPFGKIDNIVLMKDSDTGRSKGYGFITFSDSECARRALEQLNGFELAGRPMRVGHVTERLDGG | soluble
MGHHHHHHSHMSSPSRKRTIAESKKKHEEKQMKAQQLREKLREEKTLKLQKLLEREKDVRKWKEELLDQRRRMMEEKLLHAEFKREVQLQAIVKKAQEEEAKVNEIAFINTLEAQNKRHDVLSKLKEYEQRLNELQEERQRRQEEKQARDEAVQERKRALEAERQAR | soluble
MDWVRLLSRLVQAESLPGEEGEAAGLLLEALKGMGLEATLDEAGNIEALLGEKGPEVVLTGHMDVVPVGDPARWPYPQGAVAEGSLWGRGAVDMKGSLVAMLLALETLARGALKGRVRFLAVVQEEVGGLGSRFAAERLSPLAFVLGEPSSGRLMRGHRGRRKVWADFEGRETHAALAGPENPLFDLGAYLLALQDLPLPPGVKLTPTRVDTHPGARNQTPGVVRLYLDVRYEPEADLDGLLAALRTLGPASVYLPEEERASGEVRMTLPALWPPYRLPEDHPLLQAALQALGQEEAGLWPFTTDAPYLGAKAPVLGLGPGDPALAHTPMEHVPLRAVEEAAQAYVRLVEALWNAD | soluble
SNAMKVKIYTRNGCPYCVWAKQWFEENNIAFDETIIDDYAQRSKFYDEMNQSGKVIFPISTVPQIFIDDEHIGGFTELKANADKILNKK | soluble
MAFYLPDWSCCGLWLFGRPRNRYSQLPEEPETFECPDRWRAEIDLGLPPGVQVGDLLRNEQTMGSLRQVYLLAVQANSITDHLKRFDAVRVPESCRGVVEAQVAKLEAVRSVIWNTMISLAVSGIEMDENGLKALLDKQAGDSLALMEMEKVATALKMDETGAWAQEISAVVSSVTAPSASAPFINSAFEPEVPTPVLAPPPVVRQPEHSGPTELALT | not soluble
MIKQTIVALLLSVGASSVFAAGTVKVFSNGSSEAKTLTGAEHLIDLVGQPRLANSWWPGAVISEELATAAALRQQQALLTRLAEQGADSSADDAAAINALRQQIQALKVTGRQKINLDPDIVRVAERGNPPLQGNYTLWVGPPPSTVTLFGLISRPGKQPFTPGRDVASYLSDQSLLSGADRSYAWVVYPDGRTQKAPVAYWNKRHVEPMPGSIIYVGLADSVWSETPDALNADILQTLTQRIPQ | not soluble
MGSDKIHHHHHHMKKPSQFDAIVVGAGPSGNAAAYTMARAGLKVLQIERGEYPGSKNVQGAILYAKALEEIIPDFRDDAPLERHIIEQRIWMLDDTSFVGTHMRSEEYNKPPYNRYTIIRAQFDKWFSSKVREAGALLICETTVKQLIMDGDQVVGVQCDREHGDVYADVVVLADGVNSTLARKAGFHGEIEAGNVALAVKEILFMPEETIRQRFNIGEDDGVVIEMVGRITDGMTGTGFLYTNKESLTIGVGCMLGDFKKNPNRTSPYVLLEKMKQHPSIAPLIAGGEMKEYCAHLIPEGGFHAIPRVYGNGWMIVGDSGGFVNAAHREGSNLAMTTGRLAAETVIHAKAAGLGYRAATLKAYKAALDQSFVMKDLHKYRDMPAVLHQNPQFFTTYPDLVARAARTMLTVDGKDKKSKEREIFSSFRKARSLAGMVGDAYKLLRAFR | not soluble
MNYQVLLYYKYTTIDDPEQFAQDHLAFCKAHHLKGRILVSTEGINGTLSGTKEETEQYMAHMHADERFKDMVFKIDEAEGHAFKKMHVRPRKEIVALDLEDDVDPRHTTGQYLSPVEFRKALEDDDTVIIDARNDYEFDLGHFRGAIRPDITRFRDLPDWIKENKALFTDKKVVTYCTGGIRCEKFSGWLLKEGFEDVAQLHGGIATYGKDPETKGQYWDGKMYVFDDRISVDINQVEKTIIGKDWFDGKPCERYINCANPECNKQILVSEENETKYLGACSYECAKHERNRYVQANNISDNEWQQRLTNFDDLHQHALEHHHHHH | soluble
MLNVESHVLRYWEEELEIKIPRNEMGHRYYTEDNIESLRKVRDLKKQGYSLKAIKNMVNPKKATRENKESNERLTVRQPISLMEVREKKVGVENCYQEVPEAMSGSVQSVVQNMTQSNGQNAESAGLKLEQFQNLMNKVVSKALKESTTNLGKELSDNVSENVLKGMNYMMRVQDEKEEERYRKLDELMRNKQKLSRREKRKKAKAEKLLLKNKKKGMAHFGKKPQTT | not soluble
LEILRKNRINEPCIKLNTHSIANKIYATENYIIGIPTDHPDEISDAFTKSVAALLAKSNGIRTPELICFDDSYTIKALDKKLHKIGKAEDGACNLILDMLRLLRLAKDLF | not soluble
